Data on eleven sequences can be found in patent US20180002379.

Assay in all cases: cell_activity
In series [1] the test system is ZFN SBS#20505 (synthetic).
Series [2] has as its system ZFN SBS#46696 (synthetic).
Series [3] relates to ZFN SBS#46697 (synthetic).
For series [4], the system named is ZFN SBS#46693 (synthetic).
Series [5] relates to ZFN SBS#46705 (synthetic).
In the next series the test system is ZFN SBS#8266 (synthetic).
Series [6] relates to ZFN SBS#46698 (synthetic).
In series [7] the test system is ZFN SBS#46700 (synthetic).
Setting [8] is: pair 46700:46705 at CCR2, GFP 0.05.

For the sequence “AAACTGCAAAAA (double strand) [CCR2 right half-site]”, the activity in series [1] (pair 8266:20505 at CCR2, K562) was found to be 5.23 % indel; in series [2] (pair 46693:46696 at CCR2, background level, no SELEX evidence of binding the CCR2 adenine), 0.01 % indel; in series [3] (pair 46693:46697 at CCR2, no SELEX evidence of binding the CCR2 adenine), 0.07 % indel. In series [1] (pair 8266:20505, K562), “AAACTGCAAAAG (double strand) [CCR5 right half-site (20505)]” displayed an activity of 29.9 % indel.

On to “AGGATGAGGATGACCAGCATGTTGTTGC (double strand) [CCR5 left target]”, for which, in series [4] (pair 46693:46697, K562, GFP 0.01), the activity worked out at 10 % indel. As to “ATAAACTGCAAAAGGCTGAAGAGCATGA (double strand) [CCR5 right target]”, the activity in series [2] (pair 46693:46696, K562, printed 417, 632 of 15162 reads) amounted to 4.17 % indel; in series [3] (pair 46693:46697, K562), 10 % indel. In turn, “CAAAAAGCTGAAGTGCTT (double strand) [CCR2 shifted right half-site]” displayed an activity in series [5] (setting [8]) of 0.08 % indel. As to “GATGAGGATGAC (double strand) [CCR5 left half-site (8266)]”, the activity with ZFN SBS#8266 (synthetic) (pair 8266:20505, K562) was found to be 29.9 % indel. For the sequence “GGTCGTCCTCATCTTAAT (double strand) [CCR2 shifted left half-site]”, the activity in series [6] (pair 46698:46705 at CCR2) amounted to 0 % indel; in series [7] (setting [8]), 0.08 % indel. With “GTCGTCCTCATC (double strand) [CCR2 left half-site]”, the activity in series [4] (pair 46693:46697 at CCR2, p 0.0013) is 0.07 % indel; in the series on ZFN SBS#8266 (synthetic) (pair 8266:20505 at CCR2, K562), 5.23 % indel. Consider “TGCAAAAGGCTGAAGAGCATGACTGACA (double strand) [CCR5 shifted right 6F]”, for which the activity in series [5] (pair 46700:46705, K562, GFP 0.03) was found to be 27.4 % indel. For “TTATCAGGATGAGGATGACCAGCATGTT (double strand) [CCR5 shifted left 4F]”, in series [6] (pair 46698:46705, K562), the activity is 23.8 % indel. The sequence “TTATCAGGATGAGGATGACCAGCATGTT (double strand) [CCR5 shifted left 6F]” yielded an activity in series [7] (pair 46700:46705, K562) of 27.4 % indel.
